The values that follow come from PMC3034641 (Cancer research, 2010).

B1: purified recombinant human CCL21 (Chemicon) (ligand, UniProt O00585 24-134, looked up)
chain: SDGGAQDCCLKYSQRKIPAKVVRSYRKQEPSLGCSIPAILFLPRKRSQAELCADPKELWVQQLMQHLDKTPSPQKPAQGCRKDRGASKTGKKGKGSKGCKRTERSQTPKGP
B2: Chemotrap-1 (THAP1(140-213)-Fc), purified from CHO cells (Fc fusion, human, UniProt Q9NVV9 140-213, looked up)
chain: EDTMHQRKRIHQLEQQVEKLRKKLKTAQQRCRRQERQLEKLKEVVHFQKEKDDVSERGYVILPNDYFEIVEVPA

For experiment [1], the target named is T1, THAP1(1-213)-Fc fusion protein (human, UniProt Q9NVV9 1-213).
T1 sequence (looked up): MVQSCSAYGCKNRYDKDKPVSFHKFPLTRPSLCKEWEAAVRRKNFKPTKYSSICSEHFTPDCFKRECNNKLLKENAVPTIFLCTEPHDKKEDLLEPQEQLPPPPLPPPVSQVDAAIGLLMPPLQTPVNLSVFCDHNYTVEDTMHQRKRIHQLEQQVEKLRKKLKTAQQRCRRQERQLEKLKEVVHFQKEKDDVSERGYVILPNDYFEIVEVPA
The experiment in a line: SPR. Background: SPR reads the build-up and loss of mass on a sensor chip optically.

Experiment [2] concerns the target B1. As to the kind of experiment: SPR.

In the case of B1, in experiment [1], the affinity, expressed as Kd, was 87 nM.

On to B2, for which the dissociation constant (Kd) in experiment [2] was determined as 102 nM.

The Kd is the equilibrium constant for the complex coming apart.
